According to article PMC11036628:

Molecular target: Dectin-1 (mouse (endogenous in bone marrow-derived dendritic cells)) (UniProt Q6QLQ4)
Sequence of UniProt Q6QLQ4 (Q6QLQ4 whole entry): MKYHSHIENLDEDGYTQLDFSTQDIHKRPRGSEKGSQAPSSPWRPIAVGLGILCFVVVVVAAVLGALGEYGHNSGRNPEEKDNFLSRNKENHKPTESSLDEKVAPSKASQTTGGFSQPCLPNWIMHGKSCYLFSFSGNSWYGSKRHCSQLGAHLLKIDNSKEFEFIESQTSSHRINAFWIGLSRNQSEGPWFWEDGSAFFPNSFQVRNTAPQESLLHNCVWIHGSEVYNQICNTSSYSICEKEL

IL-10 transcripts by quantitative PCR on NLGP addition to tumour-conditioned mBMDCs; counterbalanced by Laminarin, Dectin-1 siRNA and both: 4.5 fold | IL-12p35 transcripts by quantitative PCR on NLGP addition to tumour-conditioned mBMDCs; counterbalanced by Laminarin, Dectin-1 siRNA and both: 1.5 fold
Substance: Neem Leaf Glycoprotein (natural protein)
